Results taken from article PMC3792966.

Target: FevR of F. holarctica LVS fused to the Zif protein (F. holarctica LVS)
Test: two-hybrid

## MglA/SspA complex of the bridge two-hybrid system (MglA of F. tularensis SCHU S4 fused to ω, with Ss
  β-galactosidase activity in strain AW23 after 300 min: 1070 AU
  β-galactosidase activity in strain AW24 after 300 min: 1300 AU
